Experimental data published in patent US20030220247A1.

Biological target: vitamin K-dependent gamma-glutamyl carboxylase
Experiment: inhibition constant of the propeptide toward the carboxylase; assay not described in the example

consensus propeptide sequence showed a Ki of 0.43 nM.
